Measured values: publication PMC3961559
Read-outs that look alike come from different tables or passages of the source.

What was measured:
human alpha-thrombin [1] = target: T1, human alpha-thrombin (Homo sapiens, UniProt P00734;P00734 328-363;364-622); experiment: competition
human alpha-thrombin [2] = target: T1, human alpha-thrombin; experiment: competition; remark: listed apart in the source

GGTTGGTGTGGTTGG (structured_DNA) [thrombin binding aptamer (TBA) oligo]: binds (human alpha-thrombin [1]).

GGCGTAACTGATCGATCGT (ssDNA) [non-specific oligonucleotide]: no binding (human alpha-thrombin [2]).
